Laboratory results: paper PMC5715905, “Mechanistic insight into the assembly of the HerA–NurA helicase–nuclease DNA end resection complex” (Nucleic Acids Research, 2017)

Legend:
HerA [1] = molecular target: T1, HerA (thermophilic archaeon, Sulfolobus …, UniProt Q97WG8 1-500); experiment: fluorescence anisotropy; 2 mM ATPgS, 5 mM MgCl2; HerA monomer concentration; FA: 5 nM dsDNA, 100 mM NaCl, 20 mM Hepes-NaOH pH 8.0, 30 min room temperature (with nucleotide: 2 mM plus 5 mM MgCl2); native MS: 200 mM ammonium acetate pH 7.0-7.5, 1:1 protein:DNA, 30 min room temperature; settings: protein: recombinant; chain copies: 6; label: 5'-fluorescein on strand 1; blunt
T1 sequence: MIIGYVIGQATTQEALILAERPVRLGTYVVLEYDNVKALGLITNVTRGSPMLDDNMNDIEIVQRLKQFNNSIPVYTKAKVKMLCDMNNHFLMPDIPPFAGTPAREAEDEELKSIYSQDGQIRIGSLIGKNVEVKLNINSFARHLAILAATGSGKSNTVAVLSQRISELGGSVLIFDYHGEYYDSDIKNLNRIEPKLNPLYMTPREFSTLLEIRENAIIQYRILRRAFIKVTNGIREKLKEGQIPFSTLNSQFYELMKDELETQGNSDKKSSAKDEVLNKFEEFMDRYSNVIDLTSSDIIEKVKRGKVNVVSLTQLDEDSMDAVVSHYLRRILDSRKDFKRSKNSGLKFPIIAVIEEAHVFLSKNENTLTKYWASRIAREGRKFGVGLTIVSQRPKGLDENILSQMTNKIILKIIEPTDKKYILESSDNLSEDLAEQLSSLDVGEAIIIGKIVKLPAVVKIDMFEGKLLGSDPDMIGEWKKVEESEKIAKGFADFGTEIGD

HerA [2] = molecular target: T1, HerA; experiment: fluorescence anisotropy; no nucleotide; HerA monomer concentration; FA: 5 nM dsDNA, 100 mM NaCl, 20 mM Hepes-NaOH pH 8.0, 30 min room temperature (with nucleotide: 2 mM plus 5 mM MgCl2); native MS: 200 mM ammonium acetate pH 7.0-7.5, 1:1 protein:DNA, 30 min room temperature; settings: protein: recombinant; chain copies: 6; label: 5'-fluorescein on strand 1; blunt
HerA;NurA H306A = molecular target: T2, HerA;NurA H306A (thermophilic archaeon, Sulfolobus …, UniProt Q97WG8;Q97WH1 1-500;1-339, |H306A); experiment: fluorescence anisotropy; no nucleotide; Hill fit; monomeric HerA concentration; FA: 5 nM dsDNA, 100 mM NaCl, 20 mM Hepes-NaOH pH 8.0, 30 min room temperature (with nucleotide: 2 mM plus 5 mM MgCl2); native MS: 200 mM ammonium acetate pH 7.0-7.5, 1:1 protein:DNA, 30 min room temperature; settings: protein: recombinant;recombinant; tags: ;; chain copies: 6;2; label: 5'-fluorescein on strand 1; blunt
T2 sequence 1: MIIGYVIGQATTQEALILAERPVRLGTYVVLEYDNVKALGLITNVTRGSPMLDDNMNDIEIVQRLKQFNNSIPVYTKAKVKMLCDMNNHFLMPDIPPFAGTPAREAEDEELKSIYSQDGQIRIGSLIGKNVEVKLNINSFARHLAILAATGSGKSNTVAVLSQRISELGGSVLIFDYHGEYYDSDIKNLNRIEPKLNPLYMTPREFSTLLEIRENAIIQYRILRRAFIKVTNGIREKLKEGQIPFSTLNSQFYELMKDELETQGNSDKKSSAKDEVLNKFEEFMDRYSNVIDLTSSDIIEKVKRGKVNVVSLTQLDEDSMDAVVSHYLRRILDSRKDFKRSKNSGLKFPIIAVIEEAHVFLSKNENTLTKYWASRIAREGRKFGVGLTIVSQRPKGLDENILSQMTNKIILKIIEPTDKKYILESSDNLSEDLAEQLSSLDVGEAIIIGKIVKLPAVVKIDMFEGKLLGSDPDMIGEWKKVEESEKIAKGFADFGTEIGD
T2 sequence 2: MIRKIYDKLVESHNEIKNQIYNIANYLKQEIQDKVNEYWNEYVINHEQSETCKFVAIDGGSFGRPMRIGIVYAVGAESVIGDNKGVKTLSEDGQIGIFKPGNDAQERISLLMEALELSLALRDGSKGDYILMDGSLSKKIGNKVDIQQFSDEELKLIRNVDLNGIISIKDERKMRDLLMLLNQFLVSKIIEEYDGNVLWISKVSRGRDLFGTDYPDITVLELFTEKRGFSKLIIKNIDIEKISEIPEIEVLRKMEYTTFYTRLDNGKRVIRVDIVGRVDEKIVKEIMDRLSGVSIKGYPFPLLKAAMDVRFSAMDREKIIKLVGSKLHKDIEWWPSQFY

[3] = molecular target: T3, HerA helicase, wild type (Sulfolobus solfataricus) (S. solfataricus, UniProt Q97WG8 1-500); experiment: native MS; HerA incubated with NurA (2:3 molar ratio of monomers), no dsDNA, no nucleotide, 200 mM ammonium acetate; settings: both partners purified
T3 construct: HerA helicase of the thermophilic archaeon Sulfolobus solfataricus; In solution a mix of hexamer and heptamer; the hexamer is the form found with NurA; No tag is named in the purification; Expression and constructs may be described in the supplementary materials and methods; also called apo-HerA; wild-type HerA; source: cells lysed by sonication, lysate heated at 70°C, purified (Heparin HP, …)
T3 sequence: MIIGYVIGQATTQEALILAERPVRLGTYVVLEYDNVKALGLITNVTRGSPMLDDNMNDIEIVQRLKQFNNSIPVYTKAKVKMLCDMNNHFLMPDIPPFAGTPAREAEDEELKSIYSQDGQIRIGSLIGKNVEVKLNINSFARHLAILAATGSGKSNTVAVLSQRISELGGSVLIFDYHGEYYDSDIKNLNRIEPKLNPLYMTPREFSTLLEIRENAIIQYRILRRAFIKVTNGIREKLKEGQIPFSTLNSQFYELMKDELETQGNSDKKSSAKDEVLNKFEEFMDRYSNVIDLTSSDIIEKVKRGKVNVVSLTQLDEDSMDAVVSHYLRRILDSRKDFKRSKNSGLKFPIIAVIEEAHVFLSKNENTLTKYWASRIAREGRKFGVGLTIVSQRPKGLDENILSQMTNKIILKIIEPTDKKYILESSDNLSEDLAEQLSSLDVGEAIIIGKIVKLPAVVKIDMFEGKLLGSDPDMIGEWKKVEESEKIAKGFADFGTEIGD

[4] = molecular target: the molecule itself; experiment: as above
[5] = molecular target: T3, HerA helicase, wild type (Sulfolobus …); experiment: native MS; HerA incubated with NurA and a 25 bp blunt-ended dsDNA (protein and DNA 1:1, 30 min at room temperature), no nucleotide, 200 mM ammonium acetate; settings: both partners purified
HerA K154A = molecular target: T4, HerA K154A (thermophilic archaeon, Sulfolobus …, UniProt Q97WG8 1-500, K154A); experiment: native MS; FA: 5 nM dsDNA, 100 mM NaCl, 20 mM Hepes-NaOH pH 8.0, 30 min room temperature (with nucleotide: 2 mM plus 5 mM MgCl2); native MS: 200 mM ammonium acetate pH 7.0-7.5, 1:1 protein:DNA, 30 min room temperature; settings: protein: recombinant; chain copies: 6; blunt
T4 sequence: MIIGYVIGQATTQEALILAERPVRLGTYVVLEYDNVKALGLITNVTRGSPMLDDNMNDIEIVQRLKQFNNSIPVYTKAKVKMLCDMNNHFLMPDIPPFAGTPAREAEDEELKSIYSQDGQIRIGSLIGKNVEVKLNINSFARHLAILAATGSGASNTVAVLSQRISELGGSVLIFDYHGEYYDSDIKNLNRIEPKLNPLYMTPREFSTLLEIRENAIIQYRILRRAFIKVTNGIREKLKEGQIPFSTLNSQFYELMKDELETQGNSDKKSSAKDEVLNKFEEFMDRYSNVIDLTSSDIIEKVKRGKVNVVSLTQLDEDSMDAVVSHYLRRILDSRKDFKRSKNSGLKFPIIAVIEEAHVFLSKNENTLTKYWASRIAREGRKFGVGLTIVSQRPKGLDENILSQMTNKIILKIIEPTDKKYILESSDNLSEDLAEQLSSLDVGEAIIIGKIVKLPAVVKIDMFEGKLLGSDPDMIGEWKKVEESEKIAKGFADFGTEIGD

HerA;NurA = molecular target: T5, HerA;NurA (thermophilic archaeon, Sulfolobus …, UniProt Q97WG8;Q97WH1 1-500;1-339, |); experiment: native MS; no nucleotide; dsDNA intact; FA: 5 nM dsDNA, 100 mM NaCl, 20 mM Hepes-NaOH pH 8.0, 30 min room temperature (with nucleotide: 2 mM plus 5 mM MgCl2); native MS: 200 mM ammonium acetate pH 7.0-7.5, 1:1 protein:DNA, 30 min room temperature; settings: protein: recombinant;recombinant; tags: ;; chain copies: 6;2; blunt
T5 sequence 1: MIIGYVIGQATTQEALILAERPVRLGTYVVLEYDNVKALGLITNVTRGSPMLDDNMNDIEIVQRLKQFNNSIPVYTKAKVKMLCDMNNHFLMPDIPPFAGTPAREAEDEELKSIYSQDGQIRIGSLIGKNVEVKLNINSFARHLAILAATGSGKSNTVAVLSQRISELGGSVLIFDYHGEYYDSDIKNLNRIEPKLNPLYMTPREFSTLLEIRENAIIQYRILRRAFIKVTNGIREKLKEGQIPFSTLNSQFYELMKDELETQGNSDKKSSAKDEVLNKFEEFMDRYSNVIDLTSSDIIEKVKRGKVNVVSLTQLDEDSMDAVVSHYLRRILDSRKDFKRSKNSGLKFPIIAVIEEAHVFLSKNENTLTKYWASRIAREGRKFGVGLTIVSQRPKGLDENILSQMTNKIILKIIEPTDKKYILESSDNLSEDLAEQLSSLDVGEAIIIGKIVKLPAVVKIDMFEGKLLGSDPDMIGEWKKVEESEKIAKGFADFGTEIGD
T5 sequence 2: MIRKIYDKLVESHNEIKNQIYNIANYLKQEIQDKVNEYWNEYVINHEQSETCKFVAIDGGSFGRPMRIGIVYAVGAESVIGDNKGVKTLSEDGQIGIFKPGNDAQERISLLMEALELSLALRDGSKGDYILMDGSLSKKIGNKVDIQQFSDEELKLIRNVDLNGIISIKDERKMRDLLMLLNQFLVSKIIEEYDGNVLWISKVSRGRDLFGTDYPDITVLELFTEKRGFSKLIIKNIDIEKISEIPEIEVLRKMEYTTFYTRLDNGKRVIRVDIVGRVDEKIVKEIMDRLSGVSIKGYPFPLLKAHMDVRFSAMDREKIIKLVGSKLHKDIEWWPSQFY

B1: 5'-fluorescein 25 bp dsDNA (dsDNA)
DNA 1: GTAGTCCGGACGACAAACGCCGACT
DNA 2: AGTCGGCGTTTGTCGTCCGGACTAC
Kd (HerA [1]): 3.22 ± 0.27 µM | Kd (HerA [2]): 4.85 ± 0.47 µM | Kd (HerA;NurA H306A): 0.51 ± 0.0304 µM

B2: NurA nuclease, wild type (Sulfolobus solfataricus) (enzyme, S. solfataricus)
chain: MIRKIYDKLVESHNEIKNQIYNIANYLKQEIQDKVNEYWNEYVINHEQSETCKFVAIDGGSFGRPMRIGIVYAVGAESVIGDNKGVKTLSEDGQIGIFKPGNDAQERISLLMEALELSLALRDGSKGDYILMDGSLSKKIGNKVDIQQFSDEELKLIRNVDLNGIISIKDERKMRDLLMLLNQFLVSKIIEEYDGNVLWISKVSRGRDLFGTDYPDITVLELFTEKRGFSKLIIKNIDIEKISEIPEIEVLRKMEYTTFYTRLDNGKRVIRVDIVGRVDEKIVKEIMDRLSGVSIKGYPFPLLKAHMDVRFSAMDREKIIKLVGSKLHKDIEWWPSQFY
notes: NurA nuclease of the thermophilic archaeon Sulfolobus solfataricus; Homodimer; No tag is named in the purification; also called NurA^WT; NurA dimer; source: cells lysed by sonication, lysate heated at 70°C, purified (Heparin HP, HiTrap Q HP)
binding result [3]: binds | stoichiometry N [4]: 2

B3: NurA H306A, nuclease-inactive mutant (Sulfolobus solfataricus) (enzyme, S. solfataricus)
chain: MIRKIYDKLVESHNEIKNQIYNIANYLKQEIQDKVNEYWNEYVINHEQSETCKFVAIDGGSFGRPMRIGIVYAVGAESVIGDNKGVKTLSEDGQIGIFKPGNDAQERISLLMEALELSLALRDGSKGDYILMDGSLSKKIGNKVDIQQFSDEELKLIRNVDLNGIISIKDERKMRDLLMLLNQFLVSKIIEEYDGNVLWISKVSRGRDLFGTDYPDITVLELFTEKRGFSKLIIKNIDIEKISEIPEIEVLRKMEYTTFYTRLDNGKRVIRVDIVGRVDEKIVKEIMDRLSGVSIKGYPFPLLKAAMDVRFSAMDREKIIKLVGSKLHKDIEWWPSQFY
notes: NurA nuclease of Sulfolobus solfataricus with H306A; Made to prevent dsDNA degradation in the HerA-NurA-dsDNA complex; source: cells lysed by sonication, lysate heated at 70°C, purified (Heparin HP, HiTrap Q HP)
binding result [5]: binds

B4: 25 bp dsDNA (dsDNA)
DNA 1: GTAGTCCGGACGACAAACGCCGACT
DNA 2: AGTCGGCGTTTGTCGTCCGGACTAC
binding result (HerA K154A): no binding | binding result (HerA;NurA): binds
